In the supplement of paper PMC10724198:

Assays:
Saccharomyces cerevisiae [1] = test: protein stability index of tFT-peptide fusion in wild type (PSI (0-1 scale)); higher = more stable (slower turnover); conditions: genetic background: wild type
Saccharomyces cerevisiae [2] = test: protein stability index of tFT-peptide fusion in deletion strain of DOA10 (PSI (0-1 scale)); higher = more stable (slower turnover)
Procedure: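 MPS profiling in S. cerevisiae of two library types built from selected 12-aa C-degron peptides (IN1, IN2, LN1, LN3, VN2, R1-R5, W1-W3, Atg1 and Rpa12 C-termini): saturation mutagenesis libraries and C-terminal +1 capping libraries (13 aa). Each peptide is fused to the C-terminus of a sfGFP-mCherry timer, after a GGGS linker. Cells are FACS-sorted into 8 mCherry/sfGFP bins and sequenced. PSI runs from 0 (unstable) to 1 (stable), measured once in wild type and in the das1Δ or doa10Δ background.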

Saccharomyces cerevisiae [3] = test: protein stability index of tFT-peptide fusion in deletion strain of DAS1 (PSI (0-1 scale)); higher = more stable (slower turnover)
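For protein stability index of tFT-peptide fusion in deletion strain of DAS1 in this document: PSI is a weighted mean of each variant's read distribution over the sorted stability bins, computed only for variants having over 10 reads in total.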
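For protein stability index of tFT-peptide fusion in deletion strain of DOA10 in this document: PSI per variant is the weighted mean of its sequencing read distribution over the sorted stability bins, counting only variants with over 10 reads summed across bins.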
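For protein stability index of tFT-peptide fusion in wild type in this document: PSI derived as read-weighted mean over the 8 sorting bins, only variants exceeding 10 total reads kept, mCherry placed adjacent to the peptide and sfGFP distal.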

Sequence | protein stability index (Saccharomyces cerevisiae [1]) | protein stability index (Saccharomyces cerevisiae [2]) | protein stability index (Saccharomyces cerevisiae [3])
CLVSLPILLFFT | 0.248 | 0.528 | 
CLNSLPILLFFR | 0.109 | 0.627 | 
RVTRLRAIYFRI | 0.159 | 0.314 | 
RSLRVLLPLYFRG | 0.324 | 0.694 | 
RQTRLDAIYFRI | 0.505 | 0.703 | 
AITLPVCPLLLR | 0.229 | 0.652 | 
RSLWVLLPLYFR | 0.284 | 0.605 | 
CLVSLYILLFFR | 0.174 | 0.347 | 
GLRMCSVGCWFR | 0.248 | 0.676 | 
RVTILDAIYFRI | 0.545 | 0.663 | 
RSLRVLLPLSFR | 0.401 | 0.673 | 
AVTLPMCPLLLR | 0.261 | 0.648 | 
AITLPMCTLLLR | 0.116 | 0.675 | 
CLYSLPILLFFR | 0.0509 | 0.586 | 
AITLPMCPLLLRA | 0.171 | 0.3 | 
AITLPMCSLLLR | 0.212 | 0.656 | 
AITLPMCLLLLR | 0.116 | 0.629 | 
CLVSLPILLFFRA | 0.0659 | 0.475 | 
RVTRLDAIYWRI | 0.385 | 0.684 | 
GVTRLDAIYFRI | 0.229 | 0.69 | 

Sequence | protein stability index (Saccharomyces cerevisiae [1]) | protein stability index (Saccharomyces cerevisiae [2]) | protein stability index (Saccharomyces cerevisiae [3])
CLVSLPILLGFR | 0.391 | 0.653 | 
RSLRVLLPLYFE | 0.524 | 0.64 | 
ASTLPMCPLLLR | 0.408 | 0.668 | 
RVMRLDAIYFRI | 0.302 | 0.656 | 
DLVSLPILLFFR | 0.109 | 0.637 | 
AITLPMCPLLLRC | 0.0981 | 0.381 | 
AITLVMCPLLLR | 0.547 | 0.679 | 
CLVSLPILNFFR | 0.637 | 0.66 | 
AITLDMCPLLLR | 0.346 | 0.68 | 
RSLRVLLPLYFN | 0.107 | 0.165 | 
DVTRLDAIYFRI | 0.481 | 0.739 | 
GLYMFSVGCWFR | 0.234 | 0.524 | 
AITLPMKPLLLR | 0.297 | 0.659 | 
RSLRVLLMLYFR | 0.218 | 0.468 | 
PLYMCSVGCWFR | 0.462 | 0.643 | 
AITLMMCPLLLR | 0.302 | 0.612 | 
GLYMNSVGCWFR | 0.351 | 0.704 | 
RVTRLLAIYFRI | 0.155 | 0.287 | 
AITLPMGPLLLR | 0.186 | 0.688 | 
RVTRLDAIYFRIH | 0.087 | 0.143 | 

Sequence | protein stability index (Saccharomyces cerevisiae [1]) | protein stability index (Saccharomyces cerevisiae [2]) | protein stability index (Saccharomyces cerevisiae [3])
FSMRWTFRYEVN | 0.168 |  | 0.509
PSLAASFWRVSG | 0.205 |  | 0.684
CTSCGYSFRTNN | 0.391 |  | 0.695
KKHKKGQKQKIC | 0.0636 |  | 0.61
ARWHVGLWRGAS | 0.365 |  | 0.71
PLKRNHLIKLLN | 0.135 |  | 0.622
LKILRQKMNHQI | 0.179 |  | 0.67
RLIQPLPGQFLN | 0.282 |  | 0.612
VRGAVWGWRLVG | 0.108 |  | 0.649
KMHKKGQKQKIN | 0.1 |  | 0.857
TVVYLSCVACIN | 0.0176 |  | 0.0307
RLTQPLPVQFLN | 0.0562 |  | 0.857
ARWRVGLWRDAS | 0.6 |  | 0.702
RLIQPLPVQELN | 0.525 |  | 0.703
PSLAASNWRVVG | 0.22 |  | 0.692
FSMRWTFRYWVP | 0.541 |  | 0.541
LKILRQKMNHQNM | 0.601 |  | 0.592
KKHKKGQKQKID | 0.547 |  | 0.611
